B1: etanercept (ENBREL®), non-PEGylated (Fc fusion)
chain: LPAQVAFTPYAPEPGSTCRLREYYDQTAQMCCSKCSPGQHAKVFCTKTSDTVCDSCEDSTYTQLWNWVPECLSCGSRCSSDQVETQACTREQNRICTCRPGWYCALSKQEGCRLCAPLRKCRPGFGVARPGTETSDVVCKPCAPGTFSNTTSSTDICRPHQICNVVAIPGNASMDAVCTSTSPTRSMAPGAVHLPQPVSTRSQHTQPTPEPSTAPSTSFLLPMGPSPPAEGSTGDEPKSCDKTHTCPPCPAPELLGGPSVFLFPPKPKDTLMISRTPEVTCVVVDVSHEDPQVKFNWYVDGVQVHNAKTKPREQQYNSTYRVVSVLTVLHQNWLDGKEYKCKVSNKALPAPIEKTISKAKGQPREPQVYTLPPSREEMTKNQVSLTCLVKGFYPSDIAVEWESNGQPENNYKTTPPVLDSDGSFFLYSKLTVDKSRWQQGNVFSCSVMHEALHNHYTQKSLSLSPGK
B2: PEG20-etanercept (10 eq) (Fc fusion)
chain: B1 chain
modifications: 20 KDa PEG (PEG20) conjugated via NHS-ester PEG reagent at 10 times molar excess; sites not stated

Legend:
[1] = biological target: T1, Recombinant human TNF-alpha (human, UniProt P01375 77-233); assay: ELISA of unbound rhTNF-alpha after pre-incubation; printed as 4.095e-009 g/ml
[2] = biological target: T1, Recombinant human TNF-alpha; assay: ELISA of unbound rhTNF-alpha after pre-incubation; printed as 6.116e-009 g/ml

T1 sequence (P01375 77-233): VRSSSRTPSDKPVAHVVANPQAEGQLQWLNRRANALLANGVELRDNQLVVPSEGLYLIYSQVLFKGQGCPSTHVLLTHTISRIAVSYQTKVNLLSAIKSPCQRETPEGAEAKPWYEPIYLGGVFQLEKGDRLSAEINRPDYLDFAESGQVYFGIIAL

Binder | IC50 [1] | IC50 [2]
B1 | 4.09 ng/mL | –
B2 | – | 6.12 ng/mL

Source: patent US20140030278A1 (published 2014)
